# Measured values as given in PMC6483365.
# Legend:
# [1] = system: hemagglutinin on whole virus (Influenza A virus A/Buryatia/2408/2001 (H4N6)); test: SERS sandwich; settings: […], pH 7.4), 25 C, […], room temperature, 1 h
# [2] = system: hemagglutinin on whole virus (Influenza A virus A/duck/Primorie/3691/2002 (H12N2)); test: SERS sandwich; settings: […], pH 7.4), 25 C, […], room temperature, 1 h
# [3] = biological target: hemagglutinin on whole virus (Influenza A virus A/New Caledonia/20/1999 (H1N1)) (UniProt Q6WG00); test: SERS sandwich; settings: […], pH 7.4), 25 C, […], room temperature, 1 h
# [4] = system: hemagglutinin on whole virus (Influenza A virus A/Buryatia/652/1988 (H3N8)); test: SERS sandwich; settings: […], pH 7.4), 25 C, […], room temperature, 1 h
# [5] = system: hemagglutinin on whole virus (Influenza A virus A/Mississippi/1/1985 (H3N2)); test: SERS sandwich; settings: […], pH 7.4), 25 C, […], room temperature, 1 h
# [6] = biological target: hemagglutinin on whole virus (Influenza A virus A/Vietnam/1203/2004-PR8/CDC-R (H5N1)) (UniProt Q6DQ33); test: SERS sandwich; settings: […], pH 7.4), 25 C, […], room temperature, 1 h
# [7] = biological target: hemagglutinin on whole virus (Influenza A virus A/Aichi/2/1968 (H3N2)) (UniProt P03437); test: SERS sandwich
# [8] = system: hemagglutinin on whole virus (Influenza A virus A/England/42/1972 (H3N2)); test: SERS sandwich; settings: […], pH 7.4), 25 C, […], room temperature, 1 h
# [9] = system: hemagglutinin on whole virus (Influenza A virus A/tern/South Africa/1/1961 (H5N3)); test: SERS sandwich; settings: […], pH 7.4), 25 C, […], room temperature, 1 h
# [10] = system: hemagglutinin on whole virus (Influenza A virus A/duck/Moscow/4182/2010 (H5N3)); test: SERS sandwich; settings: […], pH 7.4), 25 C, […], room temperature, 1 h
# [11] = system: hemagglutinin on whole virus (Influenza A virus A/Primorie/3/1982 (H9N2)); test: SERS sandwich; settings: […], pH 7.4), 25 C, […], room temperature, 1 h
# [12] = system: recombinant hemagglutinin H1 (Influenza A virus (H1 subtype, strain not stated)); test: SPR; settings: […], pH 7.4), 25 C, room temperature, 1 h
# [13] = system: recombinant hemagglutinin H7 (Influenza A virus (H7 subtype, strain not stated)); test: SPR; settings: […], pH 7.4), 25 C, room temperature, 1 h
# [14] = system: recombinant hemagglutinin H3 (Influenza A virus (H3 subtype, strain not stated)); test: SPR; settings: […], pH 7.4), 25 C, room temperature, 1 h
# [15] = system: recombinant hemagglutinin H5 (Influenza A virus (H5 subtype, strain not stated)); test: SPR; settings: […], pH 7.4), 25 C, room temperature, 1 h
# [16] = system: recombinant hemagglutinin H9 (Influenza A virus (H9 subtype, strain not stated)); test: SPR; settings: […], pH 7.4), 25 C, room temperature, 1 h
# [17] = biological target: hemagglutinin on whole virus (Influenza A virus A/Puerto-Rico/8/1934 (H1N1)) (UniProt P03452); test: ELAA
# Sequence of hemagglutinin on whole virus (Influenza A virus A/Puerto-Rico/8/1934 (H1N1)) (P03452 whole entry): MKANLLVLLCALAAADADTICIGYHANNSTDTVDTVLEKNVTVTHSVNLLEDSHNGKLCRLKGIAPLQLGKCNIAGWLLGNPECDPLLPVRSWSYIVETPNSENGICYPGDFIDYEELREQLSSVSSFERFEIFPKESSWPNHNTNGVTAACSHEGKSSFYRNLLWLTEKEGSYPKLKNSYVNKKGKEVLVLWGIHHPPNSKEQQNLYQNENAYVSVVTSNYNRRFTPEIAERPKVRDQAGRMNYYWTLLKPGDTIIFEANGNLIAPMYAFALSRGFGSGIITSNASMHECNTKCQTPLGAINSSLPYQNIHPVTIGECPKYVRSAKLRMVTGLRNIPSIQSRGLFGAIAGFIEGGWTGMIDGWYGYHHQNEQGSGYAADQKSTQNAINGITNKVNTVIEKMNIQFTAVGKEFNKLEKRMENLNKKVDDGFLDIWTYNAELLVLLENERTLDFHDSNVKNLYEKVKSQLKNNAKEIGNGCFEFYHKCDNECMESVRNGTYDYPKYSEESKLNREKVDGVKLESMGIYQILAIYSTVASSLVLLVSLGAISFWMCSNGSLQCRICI
# [18] = system: hemagglutinin on whole virus (Influenza A virus A/duck/Primorie/3691/2002 (H12N2)); test: ELAA; settings: […], pH 7.4), 25 C, […], room temperature, 1 h
# [19] = system: hemagglutinin on whole virus (Influenza A virus A/mallard/Sweden/91/2002 (H7N9)); test: ELAA; settings: […], pH 7.4), 25 C, […], room temperature, 1 h
# [20] = biological target: hemagglutinin on whole virus (Influenza A virus A/New Caledonia/20/1999 (H1N1)) (UniProt Q6WG00); test: ELAA; settings: […], pH 7.4), 25 C, […], room temperature, 1 h
# [21] = system: hemagglutinin on whole virus (Influenza A virus A/Primorie/3631/2002 (H9N2)); test: ELAA; settings: […], pH 7.4), 25 C, […], room temperature, 1 h
# [22] = biological target: hemagglutinin on whole virus (Influenza A virus A/Vietnam/1203/2004-PR8/CDC-R (H5N1)) (UniProt Q6DQ33); test: ELAA; settings: […], pH 7.4), 25 C, […], room temperature, 1 h
# [23] = biological target: hemagglutinin on whole virus (Influenza A virus A/Aichi/2/1968 (H3N2)) (UniProt P03437); test: ELAA
# [24] = system: hemagglutinin on whole virus (Influenza A virus A/England/42/1972 (H3N2)); test: ELAA; settings: […], pH 7.4), 25 C, […], room temperature, 1 h
# [25] = system: hemagglutinin on whole virus (Influenza A virus A/tern/South Africa/1/1961 (H5N3)); test: ELAA; settings: […], pH 7.4), 25 C, […], room temperature, 1 h
sequence,measurement,setting,value
TTGGGGTTATTTTGGGAGGGCGGGGGTT [RHA0385-Cy3],binding signal (relative SERS signal),[1],6.9
same,binding signal (relative SERS signal),[2],5
same,binding signal (relative SERS signal),[3],1.7
same,binding signal (relative SERS signal),[4],2.4
same,binding signal (relative SERS signal),[5],4.3
same,binding signal (relative SERS signal),[6],4.8
same,binding signal (relative SERS signal),[7],4.1
same,binding signal (relative SERS signal),[8],3
same,binding signal (relative SERS signal),[9],6.5
same,binding signal (relative SERS signal),[10],2.9
same,binding signal (relative SERS signal),[11],2.4
TTGGGGTTATTTTGGGAGGGCGGGGGTT [RHA0385],Kd,[12],7 nM
same,Kd,[13],12 nM
same,Kd,[14],12 nM
same,Kd,[15],13 nM
same,Kd,[16],14 nM
TTGGGGTTATTTTGGGAGGGCGGGGGTT [RHA0385-Biotin],Kd,[17],13 nM
same,Kd,[18],> 200 nM
same,Kd,[19],13 nM
same,Kd,[20],42 nM
same,Kd,[21],16 nM
same,Kd,[22],34 nM
same,Kd,[23],17 nM
same,Kd,[24],40 nM
same,Kd,[25],200 nM
